Laboratory results reported in patent US20250066499A1 (SUNSHINE GUOJIAN PHARMACEUTICAL SHANGHAI, published 2025).

What was measured:
Assay in all cases: ELISA, high plateau value (OD 450 nm)
[1] = biological target: T1, CD73-ND-his (human, UniProt P21589 27-317)
T1 construct: Biotinylated and captured on streptavidin in the ELISA
T1 sequence: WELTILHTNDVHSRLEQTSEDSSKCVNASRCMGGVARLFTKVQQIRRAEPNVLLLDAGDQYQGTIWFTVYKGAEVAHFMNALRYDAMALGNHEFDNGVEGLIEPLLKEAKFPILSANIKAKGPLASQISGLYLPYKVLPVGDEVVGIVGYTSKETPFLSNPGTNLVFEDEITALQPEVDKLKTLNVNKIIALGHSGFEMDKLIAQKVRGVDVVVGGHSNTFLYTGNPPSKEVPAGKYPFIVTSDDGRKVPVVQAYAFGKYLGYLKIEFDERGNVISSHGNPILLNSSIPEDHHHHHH
Experimental: (§1) The ELISA plates were coated with SA protein diluted to 1.5 μg/mL in coating buffer (50 mM carbonate coating buffer, pH 9.6) and incubated overnight at 4° C. The supernatant was discarded, and the plates were washed three times with PBST. Then, 5% skimmed milk powder prepared with PBS was added for blocking and the plates were incubated for 2 h at 37° C. After washing the plates once with PBST, CD73-biotin protein (prepared by biotinylating CD73-His protein according to the EZ-Link NHS-Biotin Reagent instructions) was diluted to 0.5 μg/mL and added at 100 μL/well for incubation at room temperature for 1 h. The plates were washed three times with PBST, and the prepared murine-derived monoclonal antibodies against human CD73 were serially diluted with 1% BSA buffer prepared with PBST and added to the ELISA plates at 100 μl/well. The plates were incubated at 37° C. for 1 h. After washing the plates three times with PBST, HRP-labeled goat anti-mouse IgG secondary antibody was added and the plates were incubated for 30 min at 37° C. After washing the plates three times with PBST, the residual droplets were patted dry on absorbent paper as much as possible. Then, 100 μl of TMB color developing solution was added to each well, and the plates were incubated in the dark at room temperature for 5 min for color development. Subsequently, 50 μl of 2M H₂SO₄ stop solution was added to each well to terminate the substrate reaction. The OD values were read at 450 nm using a multimode microplate reader to analyze the binding ability of the tested antibodies to the target antigen human CD73-His.
(§2) Referring to the experimental method in Example 3, the affinity of 48A11-HuV33 for various mutant proteins of CD73-ND was determined. The SA protein was diluted to 1 μg/mL for coating the ELISA plates, and the biotinylated CD73 protein (CD73-biotin) was used at a concentration of 0.1 μg/mL.

[2] = biological target: T2, CD73-ND-Y132A (human, UniProt P21589 27-317)
T2 construct: Alanine mutant of CD73-ND
T2 sequence: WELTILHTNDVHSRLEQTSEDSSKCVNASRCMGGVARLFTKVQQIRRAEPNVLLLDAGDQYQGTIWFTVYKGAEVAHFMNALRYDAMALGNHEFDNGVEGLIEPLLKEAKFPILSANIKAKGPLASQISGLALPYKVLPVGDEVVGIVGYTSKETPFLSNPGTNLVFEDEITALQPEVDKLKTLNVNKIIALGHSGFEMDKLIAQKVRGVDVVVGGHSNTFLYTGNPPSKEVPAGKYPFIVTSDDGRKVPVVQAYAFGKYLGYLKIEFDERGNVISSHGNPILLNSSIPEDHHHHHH
Experimental: as §1, §2

[3] = biological target: T3, CD73-ND-L133A (human, UniProt P21589 27-317)
T3 construct: Alanine mutant of CD73-ND
T3 sequence: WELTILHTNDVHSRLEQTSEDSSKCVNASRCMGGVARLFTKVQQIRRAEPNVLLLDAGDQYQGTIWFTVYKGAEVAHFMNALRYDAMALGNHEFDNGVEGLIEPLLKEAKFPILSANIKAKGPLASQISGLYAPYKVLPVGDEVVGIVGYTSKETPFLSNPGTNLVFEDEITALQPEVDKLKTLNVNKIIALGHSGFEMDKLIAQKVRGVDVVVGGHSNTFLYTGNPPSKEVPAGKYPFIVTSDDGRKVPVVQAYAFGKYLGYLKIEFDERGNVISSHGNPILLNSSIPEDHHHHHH
Experimental: as §1, §2

[4] = biological target: T4, CD73-ND-Y135A (human, UniProt P21589 27-317)
T4 construct: Alanine mutant of CD73-ND
T4 sequence: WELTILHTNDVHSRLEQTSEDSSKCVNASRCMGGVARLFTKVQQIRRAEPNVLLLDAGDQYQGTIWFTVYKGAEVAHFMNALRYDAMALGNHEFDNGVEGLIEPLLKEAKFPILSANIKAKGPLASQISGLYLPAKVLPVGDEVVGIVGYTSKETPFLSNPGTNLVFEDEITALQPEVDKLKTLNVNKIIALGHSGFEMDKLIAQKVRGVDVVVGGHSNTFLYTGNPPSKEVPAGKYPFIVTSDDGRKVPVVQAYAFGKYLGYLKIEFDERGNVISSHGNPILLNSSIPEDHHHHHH
Experimental: as §1, §2

[5] = biological target: T5, CD73-ND-K136A (human, UniProt P21589 27-317)
T5 construct: Alanine mutant of CD73-ND
T5 sequence: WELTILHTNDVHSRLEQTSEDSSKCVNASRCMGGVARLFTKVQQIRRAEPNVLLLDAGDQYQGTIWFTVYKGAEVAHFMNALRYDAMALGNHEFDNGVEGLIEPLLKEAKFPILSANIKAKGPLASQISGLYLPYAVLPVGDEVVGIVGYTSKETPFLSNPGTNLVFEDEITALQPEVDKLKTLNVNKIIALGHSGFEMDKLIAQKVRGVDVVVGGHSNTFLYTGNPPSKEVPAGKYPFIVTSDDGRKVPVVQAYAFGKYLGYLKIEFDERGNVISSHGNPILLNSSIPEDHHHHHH
Experimental: as §1, §2

[6] = biological target: T6, CD73-ND-V137A (human, UniProt P21589 27-317)
T6 construct: Alanine mutant of CD73-ND
T6 sequence: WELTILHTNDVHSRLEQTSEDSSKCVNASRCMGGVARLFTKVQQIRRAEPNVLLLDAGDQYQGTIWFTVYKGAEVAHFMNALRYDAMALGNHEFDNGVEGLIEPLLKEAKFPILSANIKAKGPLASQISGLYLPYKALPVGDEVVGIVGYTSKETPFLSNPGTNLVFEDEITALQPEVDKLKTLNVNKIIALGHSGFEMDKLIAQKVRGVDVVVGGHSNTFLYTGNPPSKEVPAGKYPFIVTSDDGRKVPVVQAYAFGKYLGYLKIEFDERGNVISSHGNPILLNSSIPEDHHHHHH
Experimental: as §1, §2

B1: 48A11-HuV33 (antibody, human IgG4, V domains shown)
VH: QVQLVQSGAEVKKPGASVKVSCKASGYTFTSYWMHWVRQAPGQGLEWIGEINPSIGRTNYNEKFKSRVTLTRDTSTSTAYMELSSLRSEDTAVYYCARRVYGTMDYWGQGTLVTVSS
VL: DIQMTQSPSSLSASVGDRVTITCKASQDINSYLSWFQQKPGKSPKLLIYRANIWVDGVPSRFSGSGSGQDYTFTISSLQPEDIATYYCLQYDELYTFGQGTKVEIK
notes: Humanized
For B1, the Top [1] was 2.08, the Top [2] was 0.254 and the Top [3] was 0.922. It also gave a Top [4] of 1.96, a Top [5] of 2.12 and a Top [6] of 1.6.
